To fix the notation:
T1: cyno MerTK extracellular domain (ECD), recombinant (cynomolgus monkey, UniProt Q12866 21-505 (human entry))
T1 construct: also called cynomolgus MerTK; not shown: polyHis tag or TEVS/Thrombin/murine IgG2a Fc tag
T1 chain: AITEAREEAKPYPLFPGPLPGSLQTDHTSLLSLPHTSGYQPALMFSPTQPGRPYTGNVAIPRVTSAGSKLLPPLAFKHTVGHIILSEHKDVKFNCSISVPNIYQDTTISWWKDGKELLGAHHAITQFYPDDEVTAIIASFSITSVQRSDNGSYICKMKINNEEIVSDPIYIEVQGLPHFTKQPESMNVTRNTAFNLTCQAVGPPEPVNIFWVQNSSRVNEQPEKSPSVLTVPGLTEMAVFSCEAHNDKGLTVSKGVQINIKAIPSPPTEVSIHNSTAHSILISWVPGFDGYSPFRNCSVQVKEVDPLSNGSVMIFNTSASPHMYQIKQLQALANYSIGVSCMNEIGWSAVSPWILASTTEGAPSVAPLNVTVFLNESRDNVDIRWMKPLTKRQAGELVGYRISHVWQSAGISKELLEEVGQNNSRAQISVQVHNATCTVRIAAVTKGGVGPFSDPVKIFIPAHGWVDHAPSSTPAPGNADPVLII

T2: human MerTK extracellular domain (ECD), recombinant (human, UniProt Q12866 21-505)
T2 construct: also called huMerTK; not shown: polyHis tag or TEVS/Thrombin/murine IgG2a Fc tag
T2 sequence: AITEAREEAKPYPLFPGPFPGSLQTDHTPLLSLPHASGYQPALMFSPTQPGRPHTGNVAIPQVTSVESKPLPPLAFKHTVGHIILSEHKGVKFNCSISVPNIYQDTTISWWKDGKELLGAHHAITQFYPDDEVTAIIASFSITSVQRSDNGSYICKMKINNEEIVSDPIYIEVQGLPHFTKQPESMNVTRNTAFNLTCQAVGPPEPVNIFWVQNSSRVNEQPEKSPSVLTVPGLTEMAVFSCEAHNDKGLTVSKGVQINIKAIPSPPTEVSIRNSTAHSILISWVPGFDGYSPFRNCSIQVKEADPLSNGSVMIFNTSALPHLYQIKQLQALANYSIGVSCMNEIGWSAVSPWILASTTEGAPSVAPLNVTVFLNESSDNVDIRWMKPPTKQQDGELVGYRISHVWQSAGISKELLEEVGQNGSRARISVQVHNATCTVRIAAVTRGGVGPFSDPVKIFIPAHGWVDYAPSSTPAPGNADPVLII

T3: murine MerTK extracellular domain (ECD), recombinant (mouse, UniProt Q60805 19-497)
T3 construct: also called moMerTK; mouse MerTK; not shown: polyHis tag or TEVS/Thrombin/murine IgG2a Fc tag
T3 sequence: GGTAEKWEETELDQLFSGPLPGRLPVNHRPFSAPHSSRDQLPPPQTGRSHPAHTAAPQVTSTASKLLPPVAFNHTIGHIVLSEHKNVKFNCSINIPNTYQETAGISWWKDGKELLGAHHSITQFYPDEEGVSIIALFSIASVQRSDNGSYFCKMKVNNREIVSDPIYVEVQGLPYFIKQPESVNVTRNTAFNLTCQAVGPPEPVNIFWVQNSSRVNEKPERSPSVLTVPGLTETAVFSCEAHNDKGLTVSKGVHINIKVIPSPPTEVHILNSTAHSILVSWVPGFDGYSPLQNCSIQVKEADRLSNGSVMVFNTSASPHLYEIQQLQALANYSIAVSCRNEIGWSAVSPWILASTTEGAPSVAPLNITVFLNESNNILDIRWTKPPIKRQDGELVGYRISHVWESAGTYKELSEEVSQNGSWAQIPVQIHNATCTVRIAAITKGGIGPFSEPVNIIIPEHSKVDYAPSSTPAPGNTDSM

B1: MTK-28 (antibody, human IgG1, V domains shown)
VH: QIQLVQSGPELKKPGETVKISCKASGYTFTTYGMSWVKQAPGKGLKWMGWINTYSGVPTYADDFKGRFAFSLETSASTAYLQINTLKNEDTTTYFCARFLRYYYFDYWGQGTTLTVSS
VL: QIVLSQSPVILSASPGEKVTMTCRASSSVTYMHWYQQQPGSSPKPWIYATSNLASGVPARFSGSGSGTSYSLTISRVETEDAATYYCHQWSGNPTFGGGTKLEIN
B2: MTK-24 (antibody, human IgG1, V domains shown)
VH: QVQLQQPGAELVKPGASVKLSCKASGYTFTSYWMHWVKQRPGQGLEWIGMIHPNINTNYNEKFKSKATLTVDISSSTAYMQLSSLTSEDSAVYYCAKRSPYSNYDWYFDVWGTGTTVTVSS
VL: DIQMTQSPASLSVSVGETVTITCRASENIYSNLAWYQQKQGKSPQLLVYAATNLADGVPSRFSGSGSGTQYSLKINSLQSEDFGSYYCQHFWGTPLTFGAGTKLELK
B3: MTK-15 (antibody, human IgG1, V domains shown)
VH: QIQLVQSGPELKKPGETVKISCKASGYTFTNYGVHWVKQAPGKGLKWMGWINTYTGEPTYADDFKGRFAFSLETSASTAYLQINNLKNEDMATYFCARGNRYAYMDYWGQGTSVTVSS
VL: QIVLSQSPAILSASPGEKVTMTCRASSSVSYMHWYQQKSGSSPKPWIYATSNLASGVPARFSGSGSGTSYSLTISRVEAEDAATYYCQQWSSNPRTFGGGTKLEIK
B4: MTK-06 (antibody, human IgG1, V domains shown)
VH: QIQLVQSGPELKKPGETVKISCKASGYTFTNYGMNWVKQAPGKGLKWMGWINTNTGEPTYAEEFKGRFAFSLETSASTAYLQINNLKNEDTATYFCARYYNYWYFDVWGAGTTVTVSS
VL: B3 VL with S39P, N93K, R95P
B5: MTK-13 (antibody, human IgG1, V domains shown)
VH: DVQLQESGPGLVKPSQSLSLTCSVTGYSITSGYYWNWIRQFPGNKLEWMGNIDYDGSNKYNPSLKNRISITRDTSKNHFFLKLNSVTPEDTATYFCARDGGNYRSFAYWGQGTLVTVSA
VL: QIVLTQSPPIMSASPGEKVTITCSASSSVSYMYWFQQKPGTSPKLWIYSTFNLASGVPARFSGSGSGTSYSLTISRMEAEDVATYYCQQRSSYPFTFGSGTKLEIK
B6: MTK-26 (antibody, human IgG1, V domains shown)
VH: AVQFQESGPGLVKLSQSLSLTCSVTGYSITSGYYWDWIRQFPGNKLEWMGYISYDGSNNYNPSLKNRISITRDTSKNQFFLKLNSVTTEDTATYYCAREGGYYRSMDYWGQGTSVTVSS
VL: B5 VL with P9A, T22A, Y31F, Y33H, K44R, F51S, V82A
B7: MTK-16 (antibody, human IgG1, V domains shown)
VH: LIQLVQSGPELKKPGETVKISCKASGYTFTNHGMNWVKQDPGKGLKWMGWINTYTGEPTYADDFKGRFVFSMETSASAAFLQINNLKNEDTATYFCARKGVTAARYFDYWGQGTTLTVSS
VL: DIVMTQSPKFMSTSVGDRVSITCKASQNVRTAVAWYKKKPGQSPKALINLASNRHTGVPDRFTGSGSGTDFTLTISNVQSEDLADYFCLQHWNYPLTFGGGTKLEIK
B8: MTK-27 (antibody, human IgG1, V domains shown)
VH: EVQLQQSGTELVRPGASVKLSCTASGFNIKDDYMHWVQQRPEQGLEWIGWIDPENGNTEYASKFQGKATITADASSNTAYLQLSSLTSEDTAVYYCSTLFSNYFDYWGQGTTLTVSS
VL: B7 VL with P8Q, A32S, K37Q, K38Q, N49Y, Q79R, L96Y
B9: MTK-30 (antibody, human IgG1, V domains shown)
VH: QVQLQQPGTELVRPGASVKLSCKASGYTFTSYWMHWVKQRPGQGLEWIGNLNPNNGGTYYNEKFKSKATLTVDKSSSTAYMQLSSLTSEDSAVYYCARQILLYFDYWGQGTTLTVSS
VL: DVLMTQTPLSLPVSLGDQASISCRSSQSIVHSNGDTYLEWYLQKPGQSPKLLIYKVSNRFSGVPDRFSGSGSGTDFTLKISRVEAEDLGVYYCFQGSHVPWTFGGGTKLEIK
B10: MTK-31 (antibody, human IgG1, V domains shown)
VH: QIQLVQSGPELKKSGETVKISCKASGYTFTSYGMSWVKQAPGKGLKWMGWINTYSGVPTYADDFKGRFAFSLETSASTAYLQINNLKNEDTATYFCASLSYDGSLYHAMDYWGQGTSVTVSS
VL: B9 VL with L3S, C23S, S28T, D35N
B11: MTK-10 (antibody, human IgG1, V domains shown)
VH: QVTLKESGPGILQPSQTLSLTCSFSGFSLTTSGMGVGWIRQPSGKGLEWLAHIWSDDDKRSNPALKSRLTISQDSSTNQVFLKIASVDTADSATYYCSHLTPVREFAYWGPGTLVTVSE
VL: DIQMTQTTSSLSASLGDRVTISCSASQGISNYLNWFQQKPDGTVKLLIYYTSRLHSGVPSRFSGSGSGTDFSLTISNLEPEDIATYYCQQYTKLPYTFGGGTKLEIK

The term Kd denotes the constant that tells how readily two partners part at equilibrium.

Residue numbers refer to the chain shown, from its start.

One assay has as its target T1, cyno MerTK extracellular domain (ECD), …. Nature of the assay: SPR, Carterra LSA, antibody immobilised. The method, then:
(§1) Binding kinetics of human anti-MerTK IgG1 LALAPS antibodies of the present disclosure to human, cyno, and murine MerTK were evaluated using a Carterra LSA instrument (Carterra, Salt Lake City, Utah). Briefly, anti-MerTK antibodies were prepared by diluting to 10 μg/ml in 10 mM Acetate, pH 4.25 (Carterra), at 300 μl/well. A HC200M sensor chip (Carterra) was activated using the single channel flow cell with a 7-minute injection of a 1:1:1 mixture of 100 mM MES pH 5.5, 100 mM sulfo-NHS, 400 mM EDC (all reconstituted in MES pH 5.5; 100 μl of each mixed in vial immediately before running assay). After switching to the multi-channel array flow cell, the antibodies were injected over the activated chip in a 96-spot array for 15 minutes. The remaining unconjugated active groups on the chip were then blocked by injecting 1M Ethanolamine pH 8.5 (Carterra) for 7 minutes using the single channel flow cell.
(§2) After priming with running buffer (HBS-TE, Carterra) with 0.5 mg/ml BSA (Sigma), the immobilized anti-MerTK antibodies were tested for their ability to bind to several forms of recombinant MerTK extracellular domain, including human, cynomolgus, and mouse orthologs as described above. Estimates of affinity were generated by injecting each analyte over the entire antibody array using the single channel flow cell. MerTK analytes were diluted to 33.3, 100, and 300 nM in running buffer, and injected in serial from lowest to highest concentration without regeneration. Two buffer blanks were run between each series (one species per series). Data were processed and analyzed using NextGenKIT high-throughput kinetics analysis software (Carterra).
(§3) The equilibrium dissociation constants (KD) were then calculated from the fitted association and dissociation rate constants (k-on and k-off) for anti-MerTK antibodies of the present disclosure. Binding kinetic analysis was also performed on anti-MerTK antibodies H1 (BioLegend, Clone ID: 590H11G1E3), H2 (R&D systems, Clone ID: 125518), M6 (WO2016/106221), and CDX AB2000-A7 hIgG1 (WO2019/084307).
For orientation: Surface plasmon resonance follows binding to a sensor surface in real time, without labels.
Take B1: the Kd came out at 4.5 nM.

As for B2, the Kd came to 44 nM.

On to B3, for which the Kd is 3 nM.

On to B4, for which the Kd was 17 nM.

As for B5, the equilibrium dissociation constant (Kd) turned out to be 39 nM.

Consider B6, for which the equilibrium dissociation constant (Kd) amounted to 30 nM.

Turning to B7, the Kd turned out to be 1.6 nM.

In the case of B8, the dissociation constant (Kd) amounted to 71 nM.

On to B9, for which the Kd came to 24 nM.

Regarding B10, the Kd worked out at 91 nM.

Take B11: the Kd came to 1.9 nM.

The target of a further assay is T2, human MerTK extracellular domain (ECD), …. Nature of the assay: SPR, Carterra LSA, antibody immobilised. On the procedure: as §1, §2, §3
Turning to B1, the Kd was determined as 4.1 nM.

Turning to B2, the Kd was 41 nM.

For B3, the Kd is 2.7 nM.

On to B4, for which the Kd stood at 18 nM.

As for B5, the Kd amounted to 37 nM.

In the case of B6, the Kd amounted to 30 nM.

Take B7: the Kd turned out to be 1.4 nM.

For B8, the Kd amounted to 71 nM.

As for B9, the Kd was 23 nM.

In the case of B10, the Kd amounted to 81 nM.

For B11, the Kd is 2 nM.

The next assay addresses T3, murine MerTK extracellular domain …. Nature of the assay: SPR, Carterra LSA, antibody immobilised. On the procedure: as §1, §2, §3
Turning to B1, the binding result was “no binding (tested: 300 nM)”.

On to B2, for which the Kd came out at 55 nM.

Turning to B3, the binding result is on record as “no binding (tested: 300 nM)”.

With B4, the binding result is reported as “no binding (tested: 300 nM)”.

On to B5, for which the binding result is on record as “no binding (tested: 300 nM)”.

Take B6: the binding result is given as “no binding (tested: 300 nM)”.

Consider B7, for which the binding result was “no binding (tested: 300 nM)”.

In the case of B8, the binding result is on record as “no binding (tested: 300 nM)”.

Regarding B9, the Kd turned out to be 30 nM.

In the case of B10, the Kd was 165 nM.

Regarding B11, the binding result is reported as “no binding (tested: 300 nM)”.
